Like-named read-outs stand apart in the source and are kept apart here. Blank lines part the entries; values can stand above or below the compound they belong to. Starred links: 1 amine or outer side, 2 acyl side, 3 side chain; linkers in the order of their positions; H or OH if unused. Non-standard residues stand in square brackets, D forms with d. Residues, ends and D or L forms follow the SMILES beside them. No end group written: not given here. X1 = O=C([C@H](CC1C=NC=N1)N[*:1])[*:2]
What was measured:
human wild-type p53 = biological target: T1, human wild-type p53 (Homo sapiens, UniProt P04637); experiment: p53 DNA binding assay: activation of DNA binding of wild-type p53; type: biochemical; conditions: for potency in activating DNA binding relative to p53p373-383: 0.4 mM; for activation of binding of wild-type p53: peptide 0.4 mM
T1 construct: Plasmid pGEMhump53wt encodes full-length human wild-type p53; made in house; host or cells: cell-free in vitro transcription and translation from pGEM4-based plasmid

p53 mutant His273 = biological target: T2, p53 mutant His273 (Homo sapiens, UniProt P04637, R273H); experiment: p53 DNA binding assay: activation of DNA binding of mutant His273; type: biochemical; conditions: oligonucleotide BC
T2 construct: made in house; host or cells: cell-free in vitro transcription and translation from pGEMhump53His273
Description: (§1) The ability of the peptides of this invention to activate DNA binding of human p53 was assayed using a standard DNA binding assay for p53 [Halazonetis et al. (1993), cited above; Halazonetis and Kandil (1993), cited above]. This assay utilizes in vitro translated human wild-type p53 or tumor-derived p53 mutants and specific oligonucleotides containing p53 binding sites. These reagents and methods for preparing them are described below.
Plasmid pGEMhump53wt was used to generate plasmids encoding mutant p53 proteins frequently associated with human cancer. The mutations introduced are those that are most frequently associated with human tumors [Caron de Fromentel et al. (1992), Genes Chrom. Cancer, 4: 1-15]. […]
Plasmids of the pGEMhump53 series were used to produce in vitro transcribed mRNA and subsequently in vitro translated protein, according to standard procedures [Halazonetis et al. (1988), Cell, 55: 917-924]. […] Thus, the presence of slowly migrating DNA, which can be detected by autoradiography, indicates p53 DNA binding [Halazonetis et al. (1993), cited above; Halazonetis and Kandil (1993), cited above]. […]

oligonucleotide BC.V4A = experiment: DNA binding assay of in vitro translated p53 deletion mutants (gel shift)
Description: as §1
Plasmids of the pGEMhump53 series were used to produce in vitro transcribed mRNA and subsequently in vitro translated protein, according to standard procedures [Halazonetis et al. (1988), Cell, 55: 917-924]. The in vitro translated proteins were assayed for DNA binding, as previously described [Halazonetis et al. (1993), cited above, and incorporated herein by reference]. Briefly the in vitro translated protein is incubated with a radioactively labeled oligonucleotide containing a p53 binding site in the presence of non-specific competitor DNA. The reaction mixture is incubated 20 min. at room temperature and directly loaded on a native 5% polyacrylamide electrophoresis gel. In this type of DNA binding assay free DNA migrates to the bottom of the gel, whereas p53/DNA complexes migrate more slowly. Thus, the presence of slowly migrating DNA, which can be detected by autoradiography, indicates p53 DNA binding [Halazonetis et al. (1993), cited above; Halazonetis and Kandil (1993), cited above].
As non-specific competitor DNAs we used 0.1 μg single-stranded oligonucleotide MI7 [[…], SEQ ID NO: 27] and 0.05 μg double-stranded oligonucleotide TF3 [[…], SEQ ID NO: 28] per reaction.
A number of double-stranded oligonucleotides containing p53 binding sites were radioactively labeled for these experiments. […] These three sites are indicated below, and the specific pentanucleotide repeats recognized by p53 are demarcated by hyphens. The sequence of oligonucleotide Ewaf1 (top strand) is: CCC-GAACA-TGTCC-CAACA-TGTTG-GGG [SEQ ID NO: 29]. […]

[1] = oligonucleotide Ewaf1, peptide 0.2-0.3 mM

potency in activating DNA binding relative to p53p373-383 (human wild-type p53; oligonucleotide Ewaf1): somewhat more potent
activation of binding of wild-type p53 (human wild-type p53; oligonucleotide Ewaf1): activated
Compound: His Leu Lys Ser Lys Lys Gly Gln Ser Thr Ser Arg His (Ac-HLKSKKGQSTSRH-NH2) [p53p368-380]

activation of binding of wild-type p53 (human wild-type p53; oligonucleotide Ewaf1): activated
Compound: Lys Gly Gln Ser Thr Ser Arg His Lys Lys Leu (Ac-KGQSTSRHKKL-NH2) [p53p373-383]

activation of DNA binding of wild-type p53 (human wild-type p53; [1]): activated
Compound: Ser Arg Ala His Ser Ser His Leu Lys Ser Lys Lys Gly Gln Ser Thr Ser Arg His Lys Lys Leu Met Phe Lys (Ac-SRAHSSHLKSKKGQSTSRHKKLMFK-NH2) [p53p362-386]

activation of DNA binding of wild-type p53 (human wild-type p53; [1]): activated
Compound: Ser His Leu Lys Ser Lys Lys Gly Gln Ser Thr Ser Arg His Lys Lys Leu Met Phe Lys (Ac-SHLKSKKGQSTSRHKKLMFK-NH2) [p53p367-386]

activation of DNA binding of wild-type p53 (human wild-type p53; [1]): activated
Compound: Arg Ala His Ser Ser His Leu Lys Ser Lys Lys Gly Gln Ser Thr Ser Arg His Lys Lys Leu Met Phe Lys (Ac-RAHSSHLKSKKGQSTSRHKKLMFK-NH2) [p53p363-386]

efficiency of activation of p53 DNA binding relative to 0.05 mM peptide p53p363-373 (human wild-type p53; peptide 0.1 mM, assay of Example 2, p53 form and oligonucleotide not stated): about two times more efficiently
Compound: C[C@H]1NC(=O)[C@H](CCCCN)NC(=O)[C@H](CCCCN)NC(=O)[C@H](CC2C=NC=N2)NC(=O)[C@H](CCCNC(=N)N)NC(=O)[C@H](CO)NC1=O (some centres unmarked) [c[SRHKKa]] (cyclo(KK[dA]SR[X1]))

Further lines, the compound ahead of its results:

Compound: Ser Lys Lys Gly Gln Ser Thr Ser Arg His Lys Lys Leu (SKKGQSTSRHKKL) [p53p371-383]
activation of DNA binding of wild-type p53 (human wild-type p53; oligonucleotide BC.V4A, peptide 0.2-0.4 mM): activated
DNA binding activity of p53His273 in presence of peptide (p53 mutant His273; peptide 0.4 mM): demonstrated DNA binding activity

Compound: p53D364-393: human wild-type p53 with deletion of residues 364-393, in vitro translated
Binding of Mutant p53 to BC.V4A DNA (oligonucleotide BC.V4A): activated
Binding of Mutant p53 to BC.V4A DNA (oligonucleotide BC.V4A; listed as pGEMhump53D364-393): activates DNA binding

Compound: Arg Ala His Ser Ser His Leu Lys Ser Lys Lys (Ac-RAHSSHLKSKK-NH2) [p53p363-373]
potency in activating DNA binding relative to p53p373-383 (human wild-type p53; oligonucleotide Ewaf1): somewhat more potent
activation of binding of wild-type p53 (human wild-type p53; oligonucleotide Ewaf1): activated

Compound: Cys Gly Gly Ser Arg Ala His Ser Ser His Leu Lys Ser Lys Lys Gly Gln Ser Thr Ser Arg His Lys Lys Leu Met Phe Lys (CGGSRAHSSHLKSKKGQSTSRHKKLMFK; also: mixed with deletion peptides lacking Gly/Phe) [p53pC360-386]
activation of DNA binding of wild-type p53 (human wild-type p53; oligonucleotide BC.V4A, 0.02-0.2 mM peptide): activated
activation of DNA binding of wild-type p53 (human wild-type p53; oligonucleotide Ewaf1, concentration not given): activated
DNA binding activity of p53His273 in presence of peptide (p53 mutant His273; peptide 0.2 mM): demonstrated DNA binding activity

Compound: p53D356-393: human wild-type p53 with deletion of residues 356-393, in vitro translated
Binding of Mutant p53 to BC.V4A DNA (oligonucleotide BC.V4A): activated

— patent US6784157B2, “Peptides and peptidomimetics with structural similarity to human p53 that activate p53 function” (Bayer Corporation, priority 1995, dated 2004)
